The assay deals with recombinant human PD-L1-Fc fusion protein (dimeric form) (human). Put plainly: SEC; SE-HPLC of the two bought PD-L1 ligands (Supplementary Figure S1); conditions not given.

As for “recombinant human PD-L1-Fc fusion protein (dimeric form)”, the stoichiometry N was determined as 2.

The values above are taken from PMC8386121.
